B1: Azoarcus group I ribozyme (parent)
chain: GUGCCUUGCGCCGGGAAACCACGCAAGGGAUGGUGUCAAAUUCGGCGAAACCUAAGCGCCCGCCCGGGCGUAUGGCAACGCCGAGCCAAGCUUCGGCGCCUGCGCCGAUGAAGGUGUAGAGACUAGACGGCACCCACCUAAGGCAAACGCUAUGGUGAAGGCAUAGUCCAGGGAGUGGCGAAAGUCACACAAACCGG

Variants of: B1
Assay: reverse-splicing fitness (ratio to wild type); higher = more active; in vitro selection; Mg2+ level not given
How it was run: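 An in vitro group I ribozyme library with randomized positions was T7-transcribed and gel-purified. In triplicate, 10 pmol RNA in EPPS pH 7.5 was reacted with 50 pmoles of a 30-nt RNA substrate for 1 h at 37 °C across several added MgCl2 levels (1–48 mM), then stopped with EDTA. Products were reverse transcribed from a substrate-complementary primer, PCR-amplified and sequenced (HiSeq 4000). Fitness is a variant's read proportion after selection over that before, normalised to wild type.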

**Q.** With GUGCCUUGCGCCGGGAAACCACGCAAGGGAUGGUGUCAAAUUCGGCGAAACCUAAGCGCCCGCCCGGGCGUAUGGCAACGCGGAGCCAAGCUUCGGCGCCUGCGCCGAUGUAGGUGUAGUGACUAGACGGCACCCACCUAAGGCAAACGCUAUGGUGAAGGCAUAGUCCAGGGAGUGGCGAAAGUCACACAAACCGG as the variant, how does the reverse-splicing fitness read?
**A.** 0.0462

**Q.** With GUGCCUUGCGCCGGGAAACCACGCAAGGGAUGGUGUCAAAUUCGGCGAAACCUAAGCGCCCGCCCGGGCGUAUGGCAACGCGGAGCCAAGCUUCGGCGCCUGCGCCGAUGUAGGUGUAGGGACUAGACGGCACCCACCUAAGGCAAACGCUAUGGUGAAGGCAUAGUCCAGGGAGGGGCGAAAGUCACACAAACCGG as the variant, how does the reverse-splicing fitness read?
**A.** 0.00905

**Q.** With GUGCCUUGCGCCGGGAAACCACGCAAGGGAUGGUGUCAAAUUCGGCGAAACCUAAGCGCCCGCCCGGGCGUAUGGCAACGCGGAGCCAAGCUUCGGCGCCUGCGCCGAUGUAGGUGUAGGGACUAGACGGCACCCACCUAAGGCAAACGCUAUGGUGAAGGCAUAGUCCAGGGAGAGGCGAAAGUCACACAAACCGG as the variant, how does the reverse-splicing fitness read?
**A.** 0.0148

**Q.** With GUGCCUUGCGCCGGGAAACCACGCAAGGGAUGGUGUCAAAUUCGGCGAAACCUAAGCGCCCGCCCGGGCGUAUGGCAACGCGGAGCCAAGCUUCGGCGCCUGCGCCGAUGUAGGUGUAGGGACUAGACGGCACCCACCUAAGGCAAACGCUAUGGUGAAGGCAUAGUCCAGGGAGCGGCGAAAGUCACACAAACCGG as the variant, how does the reverse-splicing fitness read?
**A.** 0.0216

**Q.** Which reverse-splicing fitness does the source give for GUGCCUUGCGCCGGGAAACCACGCAAGGGAUGGUGUCAAAUUCGGCGAAACCUAAGCGCCCGCCCGGGCGUAUGGCAACGCGGAGCCAAGCUUCGGCGCCUGCGCCGAUGUAGGUGUAGUGACUAGACGGCACCCACCUAAGGCCAACGAUAUGGUGAAGGCAUAGUCGAGGGAGAGGCGAAAGUCACACAAACCGG here?
**A.** 0.00283

**Q.** For GUGCCUUGCGCCGGGAAACCACGCAAGGGAUGGUGUCAAAUUCGGCGAAACCUAAGCGCCCGCCCGGGCGUAUGGCAACGCGGAGCCAAGCUUCGGCGCCUGCGCCGAUGUAGGUGUAGUGACUAGACGGCACCCACCUAAGGCCAACGAUAUGGUGAAGGCAUAGUCGAGGGAGGGGCGAAAGUCACACAAACCGG, which reverse-splicing fitness is on record?
**A.** 0.00199

**Q.** Which reverse-splicing fitness does the source give for GUGCCUUGCGCCGGGAAACCACGCAAGGGAUGGUGUCAAAUUCGGCGAAACCUAAGCGCCCGCCCGGGCGUAUGGCAACGCGGAGCCAAGCUUCGGCGCCUGCGCCGAUGUAGGUGUAGUGACUAGACGGCACCCACCUAAGGCCAACGAUAUGGUGAAGGCAUAGUCGAGGGAGCGGCGAAAGUCACACAAACCGG here?
**A.** 0.00259

**Q.** With GUGCCUUGCGCCGGGAAACCACGCAAGGGAUGGUGUCAAAUUCGGCGAAACCUAAGCGCCCGCCCGGGCGUAUGGCAACGCGGAGCCAAGCUUCGGCGCCUGCGCCGAUGUAGGUGUAGUGACUAGACGGCACCCACCUAAGGCCAACGCUAUGGUGAAGGCAUAGUCCAGGGAGUGGCGAAAGUCACACAAACCGG as the variant, how does the reverse-splicing fitness read?
**A.** 0.0386

**Q.** For GUGCCUUGCGCCGGGAAACCACGCAAGGGAUGGUGUCAAAUUCGGCGAAACCUAAGCGCCCGCCCGGGCGUAUGGCAACGCGGAGCCAAGCUUCGGCGCCUGCGCCGAUGUAGGUGUAGUGACUAGACGGCACCCACCUAAGGCCAACGAUAUGGUGAAGGCAUAGUCCAGGGAGCGGCGAAAGUCACACAAACCGG, which reverse-splicing fitness is on record?
**A.** 0.00373

**Q.** Which reverse-splicing fitness does the source give for GUGCCUUGCGCCGGGAAACCACGCAAGGGAUGGUGUCAAAUUCGGCGAAACCUAAGCGCCCGCCCGGGCGUAUGGCAACGCGGAGCCAAGCUUCGGCGCCUGCGCCGAUGUAGGUGUAGUGACUAGACGGCACCCACCUAAGGCCAACGAUAUGGUGAAGGCAUAGUCCAGGGAGGGGCGAAAGUCACACAAACCGG here?
**A.** 0.00209

**Q.** For GUGCCUUGCGCCGGGAAACCACGCAAGGGAUGGUGUCAAAUUCGGCGAAACCUAAGCGCCCGCCCGGGCGUAUGGCAACGCGGAGCCAAGCUUCGGCGCCUGCGCCGAUGUAGGUGUAGUGACUAGACGGCACCCACCUAAGGCCAACGAUAUGGUGAAGGCAUAGUCCAGGGAGAGGCGAAAGUCACACAAACCGG, which reverse-splicing fitness is on record?
**A.** 0.00311

**Q.** With GUGCCUUGCGCCGGGAAACCACGCAAGGGAUGGUGUCAAAUUCGGCGAAACCUAAGCGCCCGCCCGGGCGUAUGGCAACGCGGAGCCAAGCUUCGGCGCCUGCGCCGAUGUAGGUGUAGUGACUAGACGGCACCCACCUAAGGCCAACGAUAUGGUGAAGGCAUAGUCCAGGGAGUGGCGAAAGUCACACAAACCGG as the variant, how does the reverse-splicing fitness read?
**A.** 0.00458

**Q.** For GUGCCUUGCGCCGGGAAACCACGCAAGGGAUGGUGUCAAAUUCGGCGAAACCUAAGCGCCCGCCCGGGCGUAUGGCAACGCGGAGCCAAGCUUCGGCGCCUGCGCCGAUGUAGGUGUAGGGACUAGACGGCACCCACCUAAGGCAAACGCUAUGGUGAAGGCAUAGUCGAGGGAGGGGCGAAAGUCACACAAACCGG, which reverse-splicing fitness is on record?
**A.** 0.00448

**Q.** Which reverse-splicing fitness does the source give for GUGCCUUGCGCCGGGAAACCACGCAAGGGAUGGUGUCAAAUUCGGCGAAACCUAAGCGCCCGCCCGGGCGUAUGGCAACGCGGAGCCAAGCUUCGGCGCCUGCGCCGAUGUAGGUGUAGGGACUAGACGGCACCCACCUAAGGCAAACGCUAUGGUGAAGGCAUAGUCGAGGGAGAGGCGAAAGUCACACAAACCGG here?
**A.** 0.0187

**Q.** Which reverse-splicing fitness does the source give for GUGCCUUGCGCCGGGAAACCACGCAAGGGAUGGUGUCAAAUUCGGCGAAACCUAAGCGCCCGCCCGGGCGUAUGGCAACGCGGAGCCAAGCUUCGGCGCCUGCGCCGAUGUAGGUGUAGGGACUAGACGGCACCCACCUAAGGCAAACGCUAUGGUGAAGGCAUAGUCGAGGGAGCGGCGAAAGUCACACAAACCGG here?
**A.** 0.0225

Reference: the RNAGym collection of RNA variant scans (doi:10.1093/molbev/msab373)
